According to article doi:10.1101/2022.03.21.485124:
One block for each substance: values may come before it.

Experiments:
Experiment in all cases: SEC
[1] = molecular target: wild-type human CD81 large extracellular loop domain (wt-hCD81LEL) (human)
[2] = molecular target: human CD81 large extracellular loop domain, mutant D139N (human)
[3] = molecular target: human CD81 large extracellular loop domain, mutant E188Q (human)

stoichiometry N [1]: 2
Substance: wild-type human CD81 large extracellular loop domain (wt-hCD81LEL) (domain or fragment)

stoichiometry N [2]: 2
Substance: human CD81 large extracellular loop domain, mutant D139N (domain or fragment)

stoichiometry N [3]: 2
Substance: human CD81 large extracellular loop domain, mutant E188Q (domain or fragment)
